Test results reported in patent US20240270846A1 (published 2024).

These binders were tested against T1, CD3 epsilon homodimer protein (UniProt P07766 23-126) (assay: SPR Biacore T200, CD3 epsilon homodimer immobilized; vs unaltered GLS3000;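 also: antibody variants flowed as analyte over CD3 epsilon homodimer amine-coupled to a CM4 chip, at 25 °C in HBS-EP+ running buffer, fitted with Biacore T200 Evaluation Software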).
T1 construct: construct not described; homodimer as printed; also called CD3 (CD3 epsilon)
T1 sequence (P07766 23-126): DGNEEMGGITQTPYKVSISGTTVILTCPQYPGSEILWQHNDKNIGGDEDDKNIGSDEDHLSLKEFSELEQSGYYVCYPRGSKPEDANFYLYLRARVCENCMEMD

Row | Binder | KD ratio to GLS3000 (Affinity up)
1 | GLS3000 N30R (Kabat) L chain altered form, one-arm antibody with CE115HA000 (antibody, human IgG1, kappa, L234A L235A, N297A, name in Kabat numbering, one-arm antibody) heavy: QVQLVESGGGVVQPGRSLRLSCAASGFTFSNAWMHWVRQAPGKGLEWVAQIKAKSNNYATYYAESVKGRFTISRDDSKNSLYLQMNSLKTEDTAVYYCRYVHYGAYYGVDAWGQGTTVTVSSASTKGPSVFPLAPSSKSTSGGTAALGCLVKDYFPEPVTVSWNSGALTSGVHTFPAVLQSSGLYSLSSVVTVPSSSLGTQTYICNVNHKPSNTKVDKKVEPKSCDKTHTCPPCPAPEAAGGPSVFLFPPKPKDTLMISRTPEVTCVVVDVSHEDPEVKFNWYVDGVEVHNAKTKPREEQYASTYRVVSVLTVLHQDWLNGKEYKCKVSNKALPAPIEKTISKAKGQPREPQVYTLPPSRCELTKNQVSLSCAVKGFYPSDIAVEWESNGQPENNYKTTPPVLDSDGSFFLVSKLTVDKSRWQQGNVFSCSVMHEALHNHYTQKSLSLSPDYKDDDDK EPKSSDKTHTCPPCPAPELLGGPSVFLFPPKPKDTLMISRTPEVTCVVVDVSHEDPEVKFNWYVDGVEVHNAKTKPREEQYNSTYRVVSVLTVLHQDWLNGKEYKCKVSNKALPAPIEKTISKAKGQPREPQVCTLPPSRDELTKNQVSLWCLVKGFYPSDIAVEWESNGQPENNYKTTPPVLDSDGSFFLYSKLTVDKSRWQQGNVFSCSVMHEALHNRYTQKSLSLSP light: DIVMTQSPLSLPVTPGEPASISCRSSQSLVHSNRRTYLHWYQQKPGQAPRLLIYKVSNRFSGVPDRFSGSGSGTDFTLKISRVEAEDVGVYYCGQGTQVPYTFGQGTKLEIKRTVAAPSVFIFPPSDEQLKSGTASVVCLLNNFYPREAKVQWKVDNALQSGNSQESVTEQDSKDSTYSLSSTLTLSKADYEKHKVYACEVTHQGLSSPVTKSFNRGEC | 1.73
2 | GLS3000 N30T (Kabat) L chain altered form, one-arm antibody with CE115HA000 (antibody, human IgG1, kappa, L234A L235A, N297A, name in Kabat numbering, one-arm antibody) heavy: QVQLVESGGGVVQPGRSLRLSCAASGFTFSNAWMHWVRQAPGKGLEWVAQIKAKSNNYATYYAESVKGRFTISRDDSKNSLYLQMNSLKTEDTAVYYCRYVHYGAYYGVDAWGQGTTVTVSSASTKGPSVFPLAPSSKSTSGGTAALGCLVKDYFPEPVTVSWNSGALTSGVHTFPAVLQSSGLYSLSSVVTVPSSSLGTQTYICNVNHKPSNTKVDKKVEPKSCDKTHTCPPCPAPEAAGGPSVFLFPPKPKDTLMISRTPEVTCVVVDVSHEDPEVKFNWYVDGVEVHNAKTKPREEQYASTYRVVSVLTVLHQDWLNGKEYKCKVSNKALPAPIEKTISKAKGQPREPQVYTLPPSRCELTKNQVSLSCAVKGFYPSDIAVEWESNGQPENNYKTTPPVLDSDGSFFLVSKLTVDKSRWQQGNVFSCSVMHEALHNHYTQKSLSLSPDYKDDDDK EPKSSDKTHTCPPCPAPELLGGPSVFLFPPKPKDTLMISRTPEVTCVVVDVSHEDPEVKFNWYVDGVEVHNAKTKPREEQYNSTYRVVSVLTVLHQDWLNGKEYKCKVSNKALPAPIEKTISKAKGQPREPQVCTLPPSRDELTKNQVSLWCLVKGFYPSDIAVEWESNGQPENNYKTTPPVLDSDGSFFLYSKLTVDKSRWQQGNVFSCSVMHEALHNRYTQKSLSLSP light: DIVMTQSPLSLPVTPGEPASISCRSSQSLVHSNRTTYLHWYQQKPGQAPRLLIYKVSNRFSGVPDRFSGSGSGTDFTLKISRVEAEDVGVYYCGQGTQVPYTFGQGTKLEIKRTVAAPSVFIFPPSDEQLKSGTASVVCLLNNFYPREAKVQWKVDNALQSGNSQESVTEQDSKDSTYSLSSTLTLSKADYEKHKVYACEVTHQGLSSPVTKSFNRGEC | 12.7
3 | GLS3000 N30V (Kabat) L chain altered form, one-arm antibody with CE115HA000 (antibody, human IgG1, kappa, L234A L235A, N297A, name in Kabat numbering, one-arm antibody) heavy: QVQLVESGGGVVQPGRSLRLSCAASGFTFSNAWMHWVRQAPGKGLEWVAQIKAKSNNYATYYAESVKGRFTISRDDSKNSLYLQMNSLKTEDTAVYYCRYVHYGAYYGVDAWGQGTTVTVSSASTKGPSVFPLAPSSKSTSGGTAALGCLVKDYFPEPVTVSWNSGALTSGVHTFPAVLQSSGLYSLSSVVTVPSSSLGTQTYICNVNHKPSNTKVDKKVEPKSCDKTHTCPPCPAPEAAGGPSVFLFPPKPKDTLMISRTPEVTCVVVDVSHEDPEVKFNWYVDGVEVHNAKTKPREEQYASTYRVVSVLTVLHQDWLNGKEYKCKVSNKALPAPIEKTISKAKGQPREPQVYTLPPSRCELTKNQVSLSCAVKGFYPSDIAVEWESNGQPENNYKTTPPVLDSDGSFFLVSKLTVDKSRWQQGNVFSCSVMHEALHNHYTQKSLSLSPDYKDDDDK EPKSSDKTHTCPPCPAPELLGGPSVFLFPPKPKDTLMISRTPEVTCVVVDVSHEDPEVKFNWYVDGVEVHNAKTKPREEQYNSTYRVVSVLTVLHQDWLNGKEYKCKVSNKALPAPIEKTISKAKGQPREPQVCTLPPSRDELTKNQVSLWCLVKGFYPSDIAVEWESNGQPENNYKTTPPVLDSDGSFFLYSKLTVDKSRWQQGNVFSCSVMHEALHNRYTQKSLSLSP light: DIVMTQSPLSLPVTPGEPASISCRSSQSLVHSNRVTYLHWYQQKPGQAPRLLIYKVSNRFSGVPDRFSGSGSGTDFTLKISRVEAEDVGVYYCGQGTQVPYTFGQGTKLEIKRTVAAPSVFIFPPSDEQLKSGTASVVCLLNNFYPREAKVQWKVDNALQSGNSQESVTEQDSKDSTYSLSSTLTLSKADYEKHKVYACEVTHQGLSSPVTKSFNRGEC | 2.62

Further lines, results first:

Row | KD ratio to GLS3000 (Affinity up) | Binder
4 | 0.97 | GLS3000 N30W (Kabat) L chain altered form, one-arm antibody with CE115HA000 (antibody, human IgG1, kappa, L234A L235A, N297A, name in Kabat numbering, one-arm antibody) heavy: QVQLVESGGGVVQPGRSLRLSCAASGFTFSNAWMHWVRQAPGKGLEWVAQIKAKSNNYATYYAESVKGRFTISRDDSKNSLYLQMNSLKTEDTAVYYCRYVHYGAYYGVDAWGQGTTVTVSSASTKGPSVFPLAPSSKSTSGGTAALGCLVKDYFPEPVTVSWNSGALTSGVHTFPAVLQSSGLYSLSSVVTVPSSSLGTQTYICNVNHKPSNTKVDKKVEPKSCDKTHTCPPCPAPEAAGGPSVFLFPPKPKDTLMISRTPEVTCVVVDVSHEDPEVKFNWYVDGVEVHNAKTKPREEQYASTYRVVSVLTVLHQDWLNGKEYKCKVSNKALPAPIEKTISKAKGQPREPQVYTLPPSRCELTKNQVSLSCAVKGFYPSDIAVEWESNGQPENNYKTTPPVLDSDGSFFLVSKLTVDKSRWQQGNVFSCSVMHEALHNHYTQKSLSLSPDYKDDDDK EPKSSDKTHTCPPCPAPELLGGPSVFLFPPKPKDTLMISRTPEVTCVVVDVSHEDPEVKFNWYVDGVEVHNAKTKPREEQYNSTYRVVSVLTVLHQDWLNGKEYKCKVSNKALPAPIEKTISKAKGQPREPQVCTLPPSRDELTKNQVSLWCLVKGFYPSDIAVEWESNGQPENNYKTTPPVLDSDGSFFLYSKLTVDKSRWQQGNVFSCSVMHEALHNRYTQKSLSLSP light: DIVMTQSPLSLPVTPGEPASISCRSSQSLVHSNRWTYLHWYQQKPGQAPRLLIYKVSNRFSGVPDRFSGSGSGTDFTLKISRVEAEDVGVYYCGQGTQVPYTFGQGTKLEIKRTVAAPSVFIFPPSDEQLKSGTASVVCLLNNFYPREAKVQWKVDNALQSGNSQESVTEQDSKDSTYSLSSTLTLSKADYEKHKVYACEVTHQGLSSPVTKSFNRGEC
5 | 10.6 | GLS3000 N30S (Kabat) L chain altered form, one-arm antibody with CE115HA000 (antibody, human IgG1, kappa, L234A L235A, N297A, name in Kabat numbering, one-arm antibody) heavy: QVQLVESGGGVVQPGRSLRLSCAASGFTFSNAWMHWVRQAPGKGLEWVAQIKAKSNNYATYYAESVKGRFTISRDDSKNSLYLQMNSLKTEDTAVYYCRYVHYGAYYGVDAWGQGTTVTVSSASTKGPSVFPLAPSSKSTSGGTAALGCLVKDYFPEPVTVSWNSGALTSGVHTFPAVLQSSGLYSLSSVVTVPSSSLGTQTYICNVNHKPSNTKVDKKVEPKSCDKTHTCPPCPAPEAAGGPSVFLFPPKPKDTLMISRTPEVTCVVVDVSHEDPEVKFNWYVDGVEVHNAKTKPREEQYASTYRVVSVLTVLHQDWLNGKEYKCKVSNKALPAPIEKTISKAKGQPREPQVYTLPPSRCELTKNQVSLSCAVKGFYPSDIAVEWESNGQPENNYKTTPPVLDSDGSFFLVSKLTVDKSRWQQGNVFSCSVMHEALHNHYTQKSLSLSPDYKDDDDK EPKSSDKTHTCPPCPAPELLGGPSVFLFPPKPKDTLMISRTPEVTCVVVDVSHEDPEVKFNWYVDGVEVHNAKTKPREEQYNSTYRVVSVLTVLHQDWLNGKEYKCKVSNKALPAPIEKTISKAKGQPREPQVCTLPPSRDELTKNQVSLWCLVKGFYPSDIAVEWESNGQPENNYKTTPPVLDSDGSFFLYSKLTVDKSRWQQGNVFSCSVMHEALHNRYTQKSLSLSP light: DIVMTQSPLSLPVTPGEPASISCRSSQSLVHSNRSTYLHWYQQKPGQAPRLLIYKVSNRFSGVPDRFSGSGSGTDFTLKISRVEAEDVGVYYCGQGTQVPYTFGQGTKLEIKRTVAAPSVFIFPPSDEQLKSGTASVVCLLNNFYPREAKVQWKVDNALQSGNSQESVTEQDSKDSTYSLSSTLTLSKADYEKHKVYACEVTHQGLSSPVTKSFNRGEC
6 | 1.03 | GLS3000 N30Y (Kabat) L chain altered form, one-arm antibody with CE115HA000 (antibody, human IgG1, kappa, L234A L235A, N297A, name in Kabat numbering, one-arm antibody) heavy: QVQLVESGGGVVQPGRSLRLSCAASGFTFSNAWMHWVRQAPGKGLEWVAQIKAKSNNYATYYAESVKGRFTISRDDSKNSLYLQMNSLKTEDTAVYYCRYVHYGAYYGVDAWGQGTTVTVSSASTKGPSVFPLAPSSKSTSGGTAALGCLVKDYFPEPVTVSWNSGALTSGVHTFPAVLQSSGLYSLSSVVTVPSSSLGTQTYICNVNHKPSNTKVDKKVEPKSCDKTHTCPPCPAPEAAGGPSVFLFPPKPKDTLMISRTPEVTCVVVDVSHEDPEVKFNWYVDGVEVHNAKTKPREEQYASTYRVVSVLTVLHQDWLNGKEYKCKVSNKALPAPIEKTISKAKGQPREPQVYTLPPSRCELTKNQVSLSCAVKGFYPSDIAVEWESNGQPENNYKTTPPVLDSDGSFFLVSKLTVDKSRWQQGNVFSCSVMHEALHNHYTQKSLSLSPDYKDDDDK EPKSSDKTHTCPPCPAPELLGGPSVFLFPPKPKDTLMISRTPEVTCVVVDVSHEDPEVKFNWYVDGVEVHNAKTKPREEQYNSTYRVVSVLTVLHQDWLNGKEYKCKVSNKALPAPIEKTISKAKGQPREPQVCTLPPSRDELTKNQVSLWCLVKGFYPSDIAVEWESNGQPENNYKTTPPVLDSDGSFFLYSKLTVDKSRWQQGNVFSCSVMHEALHNRYTQKSLSLSP light: DIVMTQSPLSLPVTPGEPASISCRSSQSLVHSNRYTYLHWYQQKPGQAPRLLIYKVSNRFSGVPDRFSGSGSGTDFTLKISRVEAEDVGVYYCGQGTQVPYTFGQGTKLEIKRTVAAPSVFIFPPSDEQLKSGTASVVCLLNNFYPREAKVQWKVDNALQSGNSQESVTEQDSKDSTYSLSSTLTLSKADYEKHKVYACEVTHQGLSSPVTKSFNRGEC
